Where a chain is given by its changes, count along the chain named.
Assays:
Test in all cases: EMSA; EMSA: 10 mM Tris-HCl pH 7.5, 150 mM NaCl, 1 mM EDTA, 15 ug/ml BSA, 8% glycerol, 15 min at 20 C, 0.1 nM DNA, TBE gel; NMR PRE: 10 mM phosphate pH 6, 100 mM NaCl, 10% D2O
Settings in all cases: protein: recombinant; label: 5'-32P on one strand; blunt
MC1 I89A = target: T1, MC1 I89A (Methanosarcina thermophila CHTI55, UniProt P12770 1-93, I89A)
T1 sequence: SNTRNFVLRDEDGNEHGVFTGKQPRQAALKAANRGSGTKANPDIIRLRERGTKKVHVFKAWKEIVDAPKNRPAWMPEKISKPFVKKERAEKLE

MC1 W74F = target: T2, MC1 W74F (Methanosarcina thermophila CHTI55, UniProt P12770 1-93, W74F)
T2 sequence: T1 sequence with W74F, A89I

MC1 P72A = target: T3, MC1 P72A (Methanosarcina thermophila CHTI55, UniProt P12770 1-93, P72A)
T3 sequence: T1 sequence with P72A, A89I

MC1 R25A = target: T4, MC1 R25A (Methanosarcina thermophila CHTI55, UniProt P12770 1-93, R25A)
T4 sequence: T1 sequence with R25A, A89I

MC1 R25Q = target: T5, MC1 R25Q (Methanosarcina thermophila CHTI55, UniProt P12770 1-93, R25Q)
T5 sequence: T1 sequence with R25Q, A89I

MC1 Q23E = target: T6, MC1 Q23E (Methanosarcina thermophila CHTI55, UniProt P12770 1-93, Q23E)
T6 sequence: T1 sequence with Q23E, A89I

MC1 R71A = target: T7, MC1 R71A (Methanosarcina thermophila CHTI55, UniProt P12770 1-93, R71A)
T7 sequence: T1 sequence with R71A, A89I

B1: 26 bp EMSA duplex (dsDNA)
DNA 1: GCCTCAAAAACACACACCCCCGACAG
DNA 2: CTGTCGGGGGTGTGTGTTTTTGAGGC
B1 showed a Kd (MC1 I89A) of 15.4 ± 2 nM, a Kd (MC1 W74F) of 8.4 ± 1 nM and a Kd (MC1 P72A) of 4.2 ± 0.5 nM. The Kd (MC1 R25A) was 161 ± 14 nM, the Kd (MC1 R25Q) was 552 ± 34 nM and the Kd (MC1 Q23E) was 9.05 ± 2 nM. For the same binder, the Kd (MC1 R71A) was 3.6 ± 0.2 nM.

Source: paper PMC3928310, “Model of a DNA-Protein Complex of the Architectural Monomeric Protein MC1 from Euryarchaea”
